Where no end group is shown, it is not given here. The star is where a group is joined. 5FAM = O=C1OC2(c3ccc(O)cc3Oc3cc(O)ccc32)c2ccc(C(=O)*)cc21
Tests used:
Test in all cases: MST
MBP-SUFU-SH = MBP-SUFU-SH (human, UniProt Q9UMX1 32-278; Q9UMX1 361-483)
MBP-SUFU-Δ = target: T1, MBP-SUFU-Δ (human, UniProt Q9UMX1 32-278; Q9UMX1 361-483)
T1 chain: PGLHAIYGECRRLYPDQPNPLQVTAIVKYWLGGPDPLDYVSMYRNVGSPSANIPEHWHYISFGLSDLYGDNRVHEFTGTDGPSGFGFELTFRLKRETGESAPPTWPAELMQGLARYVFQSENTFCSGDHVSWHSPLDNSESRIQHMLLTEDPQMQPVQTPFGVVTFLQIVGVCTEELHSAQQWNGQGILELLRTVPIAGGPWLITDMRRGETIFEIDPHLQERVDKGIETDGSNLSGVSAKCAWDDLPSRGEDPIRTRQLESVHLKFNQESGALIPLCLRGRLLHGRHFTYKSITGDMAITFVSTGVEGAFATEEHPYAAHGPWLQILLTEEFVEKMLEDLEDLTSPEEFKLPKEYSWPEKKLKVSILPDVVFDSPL

MBP-SUFU-FL = target: T2, MBP-SUFU-FL (human, UniProt Q9UMX1 32-483)
T2 chain: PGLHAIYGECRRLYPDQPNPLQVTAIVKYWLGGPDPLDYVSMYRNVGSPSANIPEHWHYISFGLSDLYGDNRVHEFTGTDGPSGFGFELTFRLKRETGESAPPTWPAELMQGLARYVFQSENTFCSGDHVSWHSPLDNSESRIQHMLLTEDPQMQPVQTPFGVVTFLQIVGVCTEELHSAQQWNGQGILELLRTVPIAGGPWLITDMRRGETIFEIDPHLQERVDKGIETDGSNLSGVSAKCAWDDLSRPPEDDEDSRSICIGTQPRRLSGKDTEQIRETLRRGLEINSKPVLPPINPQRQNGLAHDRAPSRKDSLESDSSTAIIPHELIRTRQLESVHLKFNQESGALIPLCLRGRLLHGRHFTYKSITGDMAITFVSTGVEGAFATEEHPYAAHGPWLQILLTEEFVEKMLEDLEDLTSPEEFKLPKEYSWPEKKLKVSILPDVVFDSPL

5FAM-TSPGGSYGHLSIGTMSP [FAM-GLI1p]
Kd (MBP-SUFU-SH): 4.22 µM
Kd (MBP-SUFU-Δ): 4.47 µM
Kd (MBP-SUFU-FL): 4.5 µM
